Reference: the nanobody polyreactivity screen of Harvey et al. (2022)

Test: yeast display, Sf9 membrane polyspecificity reagent, FACS + sequencing; frameworks hold sequencing errors
Outline: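 Nanobodies from a synthetic yeast display library (Saccharomyces cerevisiae BJ5465), induced 36–48 hours with galactose, were stained 1 hour at 4 °C with 10% biotinylated, detergent-solubilized Sf9 membrane reagent, enriched on streptavidin microbeads, then FACS-sorted. Anti-HA (expression) and streptavidin (reagent binding) fluorescence set low and high (top ~1%) gates. Polyreactivity labels come from the gate of origin. Genes were colony-PCR amplified, MiSeq 2 × 250 sequenced and filtered by CDR length.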

Sequence | polyreactivity (PSR sort gate)
QVQLVESGGGLVQAGGSLRLSCAASGFTFQYYAMGWYRQAPGKERELVAAISWSGASTYYADSVKGRFTISRDNAKNTVYLQMNSLKPEDTAVYYCAADYWGHEYDYWGQGTQVTVSS | high polyreactivity
QLQLVESGGGLVQAGGSLRLSCAASGYMGWYRQAPGKERELVATISGSGGSTYYADSVKGRFTISRDNAKNTVYLQMNSLKPEDTAVYYCTTEIWGVNRSGYDYWGQGTQVTVSS | low polyreactivity
QVQLVESGGGLVQAGGSLRLSCAATGFIFPYYAMGLYRQAPGKEREMVAAITFSATRTYYADSVKGRFTISRDNAKNTVYLQMNSLKPEDTAVYYCNARGGVYGSYFEFNYWGQGTQVTVSS | low polyreactivity
QVQIVESGGGLVQAGGSLRLSCAASGRIFTVYGKGWYRQAPGKERELVAAISWSGGGTYYADSVKGRFTISRDNAQNTVYLQKNSLKPDDTAVYYCNADRQYTWSLVFFSSEYDYWGQGTQVTVSS | low polyreactivity
QVQLVESGGGLVQAGGSLHLSCAASGSIFPYNLMGWYRQAPGKERELVAAISNTGSTNYADSVKGRFTISRDNAMNTVYFQMNSLKPDDTAVYYCNADGSYGFWSLLDYDYWGQGTQVTVSS | low polyreactivity
QVQLVESGGGLVQAGGSLRLSCAASGSTCRPYVMGWFRQAPGKERELVAAISWRGGTTYYADSVKGRFTISRDNAKNTVSLQMNSLKPEDTAVYYCAARGDQGVPVARRYDYWGQGSQVTVSS | high polyreactivity
QVQLVESGGGLVQAGGSLRLSCAASGLTFYSNAMGWYRQAPGKERELVASISNGGSTNYADSVKGRFTISRDNAKNTVYLQMNSLKPEDTAVYYCAAEYSLRHRRYTFFAEMDYWGQGTQVTVSS | low polyreactivity
QVQLVESGGGLVQAGGSLRLSCAASGITFTWYGMGWYRQAPGKERELVAAISLTGARTYYADSVKGRFTISRDNAKNTVYLQMNSLKPEDTAVYYCNARPQGRGGTYLPRYDYWGQGTQVTVSS | high polyreactivity
QVQLVESGVGLVQAGGTLRLSCAPSGSTFSVYAMGWYRQPPGKERELVADITRGGSTYADSVKGRFTISRDNAKITVYLQMNSLKPEDTAVYYCAGEEVTPYPLYWSTREYDYWGQGTQVTVSS | low polyreactivity
QVQLVESGGGLVQAGGSLRLSCAASGIIFRTNAMGWYRKAPGKEREFVAAISAGGTRTYYADSVKGRFTISRDNAKNTVYLQMNSLKPEDTAVYYCAAASGYDYWGQGTQVTVSS | high polyreactivity
QVQLVESGGGLVQAGGSLRLSCAASGRIFGLYAMGWYRQAPGKERELVAAISSRGGNTYYADSVKGRFTISRDDAKNTVYLQMNSLKPEDTAVYYCARDSYSLSRTYDSWGQGTQVTVSS | high polyreactivity
QVQLVESGGGLVQAGGSLRLSGAASGRILRRYTMGWSRQAPGKERELVAAISSGGNTYYADSVKGRFTISRDNATNTVYLQMNSLKPEDTAGYYCAARVRRYWEYDYWGQGTQVTVSS | low polyreactivity
QVQLVESGGGLVQAGGSLRLSCAASGRIFPGYAMGLYRQAPGKERELVAAISKGGGSTSYADSVKGRFTISRDNAKNTVYFQMNSLKPEDTAVYFCAARQAWRWTYDYWGQGTQVSVSS | high polyreactivity
QVKLVESGGGIVQAGGSLRLSCAASGRTFGRNAMGWYRQAPGKERELVASITKRGGSTYYADSVKGRFTISRDNAKDTVYLQMNSLKPEDTAVYYCAVEAYDYWGQGTQVTVSS | high polyreactivity
QVQLVESGGGLVQAGGSLRLSCAASGSTFDTNAMGWSRPAPGKEREWVAAITWRGGRTSYADSVKGRFTISRDNAKNTVYLQMNSLKPEDTAVYYCAAGYKFGPPAAGTFSDFDYWGQGTQVTVTS | low polyreactivity
QVQLVESGGGLVQAGGSLRLSCAAYGITFYLYAMGWYIQAPGKERELVAAITSSGGSTYYADSVKGRFTISRDNAKNTVYFQMNSLKPEDTAVYYCNALYFSQDRYDYWGQGTQVTVSS | high polyreactivity
QVQLVESGGGLVQAGGSLRLSCAASGIIFQRNDMGWYRQAHGKERELVANIRDGGITYADSVKGRFTISRDNAKNTVYLKMNSLKPEDTAVYYCARDDTSPGYGDQSSNASNYYWGQGTQVTVSS | low polyreactivity
QVQLVESGGGLVQAGGSLRLSCAASGRILYDYDMGWYRQAPGKERELVATISRGGGTNYADSVKGRFTISRDNAKNTVYLQMNSLKPEDTAVYYCAADRWYSRYTRYGYWGQGTQVTVSS | low polyreactivity
QVQLVESGGGLVQAGGSLRLSCAASGIIFRNYAMGWYRQAPGKERELVAAISSNGGSTYYADSVKGRFTISRDNAKNTVYLQMNSLKPEDTAVYYCAARHSLYGYWGQGTQVTVSS | high polyreactivity
QVQLVESGGGLVQEGGSLRLSCASSGRIFDYYAMGWYRQAPGKESELVAAISSSVGNTYYADSVKGRFTISRDNAKNTVYFQMNRLKQEDTAVYYFADYSYVRSSYEVEYDYWGQGTQVTVSS | low polyreactivity
QVQLVESGGGLVQAGGSLRFSCAASGRTFNQNAMGWYRQAPGKERELVAAITSRGGSTFYADSVKGRFTISRDNAKNTVYLQMNSLKPEDTAVYYCNAKSWRYYTMGYWGQGTQVTVSS | high polyreactivity
QVQLVESGGGLVQAGGSLRLSCAASGSTLKYNAMGWYRQATGKERELVAAISTSGGNTYYADSVKGRFTISRDNAKNTVYLQMNSLKPEDPAVYYFAKVLGYYYYDYDSWGQGTQVTLSS | low polyreactivity

Sequence | polyreactivity (PSR sort gate)
QVQLVESGGGLVQAGGSLRLICAASGSIFRNNARGWYRQAAGKERELVAVISRRSGNTYYADSVKGRFTISRDNAKNTVYLQMNSLKPEDTAVYYCAADYSKSSIRGDYWGQGTQVTVSS | low polyreactivity
QVQLVESGGGLVQAGGSLRLSCAASGLTVKYYAMGWFRQAPGKERELAAIISFGGGSTYYADSVKGRFTISRDNAKNTVYLQMNSLKPEDTAVYYCNARLLFKYGYWGQGTQVTVSS | high polyreactivity
QVQLVESGGGLVQAGGSLRLSCAASGSIFGPYVMGWYRQAPGKERELVAAISKSGGSTYYADSVKGRFTISRDNAKNTVYLQMNSLKPEDTAVYYCATDYLGGGKRYYYWGQGTQVTVSS | high polyreactivity
QVQLVESGGGLVQAGGSLRLSCAASGFIFVWYAMGWYRQAPGKERELVAGITASGGSTYYADSVKGRFTISRDNAKNTVYLQMNSLKPEDTAVYYCAADAWPLWLKLTPTSGGYWGQGTQVTVSS | low polyreactivity
QVQLVESGGGLVQAGGSLRLSCAASGLTFVGNAMGWYRQAPGKERELVAAISRSGGRTYYADSVKGRFTISRDNAKNTVYLQMNSLKPEDTAVYYCAAPYRSYDWYDYWGQGTQVTVSS | high polyreactivity
QVQLVESGGGLVQAGGSLRLSCAASGRIFDRYAMGWYRQAPGKERELVAVITGGTGNTYYADSVKGRFTISRDNAKNTVYLQMNSLKPEDTAVYYCNARGGYYKFRYPLYYWGQGTQVTVSS | high polyreactivity
QVQLVESGGGLVQAGGSLRLSCAASGRTFGYNAMGWYRQAPGKERELVATISWGGGSTYYADSVKGRFTISRDNAKNTVYLQMNSLKPEDTAVYYCNKVHYGRRHSYSGAIYGEDYWGQGTQVTVSS | high polyreactivity
QVQLEESGGGLVQAGGSLRLSCAASGIIFSIYAMGLYRKAPGKERELVAAITYSGGRTYYADSVKGRFTISRDNAKNTVYLQMNSLKPEDTAVYYCAAVVYGEYYWGQGTQVTVSS | high polyreactivity
QVQLVESGGGLVQAGGSLRVSCAASGSTFPYYTMGWYRQAPGKERELVDVMTIRGGSTYYAHSVNGRCTHSRDNAKNTVNLQMNSLKPEDTAVNYCAPTGQLQGWYDMYYWGQGTQVTVSS | low polyreactivity
QVQLVESGGGLVQAGGSLRLSCAASGRTSIYNAMGWYRQAPGKDREFVAAITSSGGSTYYADSVKGRFTISRDNAKNTVYLQMNSLKPEDTAVYYCAARPAYVYAYYRYGYWGQGTQVTVSS | high polyreactivity
QVQLQESGDGLVQAVGSLRLSCAASGYISGYYYMGWYRQAPGKERELVAGIDAFGSSTNYADCVKGRFTISRDNATHTVYLQMNSLKPEDTAVYYCAARPDGDRLFSYWGQGTQVTVSS | low polyreactivity
QVQLVESGGGLVQAGGSLRLSCAASGSTFFYYAMGWYRKAPGKERDFVAAISKSGGRTYYADTVKGRFTISRDNAKNTVYLQMNSLKPEDTAVYYCAAYYEYRRDYWGQCTQVTVSS | high polyreactivity
QVQLVESGGGLVQAGGSLRLTCAASGSIFWGYALGWYRQAPGKERELVATIRNRGGSTYYADSVKGRFTISRDNAKNTVYLQMNSLKPEDTAVYYCAADEGGFWWTYPYDSWGQGTQVTVSS | low polyreactivity
QVQRVESGGCLVQAGGSLRLSCAASGYTFGSNAMGWYIQAPGKERELVAAITYGAGRTSYADSVKGRFTISRDNAKNTVYLQMNSLKPEDTAVYYCAAVWGYVIWVDSAVYREYDYWGQGTQVTVSS | high polyreactivity
QVQLVESGGGLVQAGGSLRLSCAASGRTFASYMGWYRQAPWKERELVAAINWSGGTTYYADSVKGRFTISRDNAKNSVYLQMNSLKPEDTAVYYCNKLGYQSRGDYWGQGTQVTVSS | high polyreactivity
QVQLVESGGGLVQAGGSLRLSCDASGGTFVHNAMGWYRQAPGKERELVAAISWSGGSTYYADSVKGRFTISRDNATNTVYLQMNSLKPEDTAVNYCAADLPDYKDIFDSWGQGTQVTLSS | low polyreactivity
QVQLVESGGGLVQAGGSLRLSCAASGRIFDYYAMGWYRQAPGKERELVAAISLIGASTYYADSVKGRFTISRDNAKNSVYLQMNSLKQEDPAVDYCAAQYAFEVPGYYREDYYWGQGTQVTVSS | low polyreactivity
QVQLVESGGGLVQAGGSLRLSCAASGRIFEDYMVWYRHAPGKDRELVAAIRWSGGGTYYADSVKGRFTISRDNAKNTVYLQMTSLKPEDTAVYYCATPGTGSVEVYGYWGQGTQVTVSS | low polyreactivity
QVQLVESGGGLVQAGGSLRLSCAASGFTFYGYAMGWYRQAPGKERELVAGISKNGGSTYYADSVKGRFTISRDNAKNTVYLQMNSLKPEDTAVYYCNKRSTLNTRRDYWGQGTQVTVSS | high polyreactivity
QVQLVESGGGLVQAGGSLRLSCAASGRTFRRNAMGWYRQAPGKERELVAAITRSGGSTYYADSVKGRFTISRDNAKNTVYLQMNSLKPEDTAVYYCAAGTYVGLKTQYDYWGQGTQVTVSS | high polyreactivity
QVQLVESGGGLVQAGGSLRLSCAASGSIFVKNAMGWYRQAPGKERELVATISRRGGSTYYADSVKGRFTISRDNAKNTVYLQMNSLKPEDTAVYYCNRLGTTVSLEYYYWGQGTQVTVSS | high polyreactivity
